# B1: full-length pom152 of Chaetomium thermophilum (Ctpom152^FL) (natural protein, UniProt G0SB44 1-1270, looked up)
# chain: MSDAPAVGAFPQTPVAARRGPARPSDSTTSTTIKRTSPLPLAPQAGRQATNISPVIPLHILDAPTQRFYAFAFYLALTAWKLYDWTQVLEEDTESFLLFLKWIAIDCVFLFGLPELRIPWLELSQPFVMVAFAIHAMFDWILMFNIGFPWQSWVIGLLKVFYDREIAISEHNVKLSSILQNSSLIMGRQIINILPEGSAILNPELQPFCLGGDRKTANIPIFFNSTIPVEVELIRTDFETGQQESIKLSKSQLRDIERRAKRESQDGDTVQSIVQFDFPVKKTGAYRLGRVLDEYKLEVQRRNPLTFVVSCPKAWVGPALSAHRCVGDLSDLSMMVEGTPPLKIKYSRMINGKDHSFHFQSLQPEGFVSPLSGLRSNNWGYDEDDISWARAQKVPVGLNESMHSSGDWQYSIDEVQDGFGNIIKYDSLADDPDGKPKPKHLTQSFVVKKRPVIRLEGCDLRHPLKVAKGKSKNLPVSYGLSGGSREDSTYQIAWQFSPIDTLTESGDHGDVVTIGTYTAKNNRDRPTISAPGLYTLKSVSASQCEGEIQEPSSCLLLNPLEPRLSLRHEEIPDTCAGNSIGLRVDLDLIGTPPFIVRYDVISNGERRSERVSIPGLRYQLDLVPRIAGHHKYIFTHVGDSIYDGQKLSGPEYVLEQDVKPAAAALIQHSTGKMSSCLGDQVTVDILLLGDPPFTLEWELIHDGKRKQFKVPNIQENSYQIKTAPLTTGGEYTLGLTSVQDKRGCRNFLQEELKISVRRQSPRAAFGQVDGKRKILAVEGSSVKLPLRLTGEGPWKVYYANLHDGSPDKPKVQEKIIKSDNGFLEVRGRGAFAITDVWDSQCHGVVDPKASRFDVDWFPRPELSVALTHGVSKTETGFQLQDVCEGDVSGFEVALKGTPPFTVEYEVRHHPLQGSSSLSKKKIEGVVGKEAIQADTSKAGTYTYKFTALEDDLYSSNRGFQPIIVKQNVNRKPTASFVKPGQTFKYCKSEQDNEDGIPITLTGVPPFFLEVEIKHQSAAVPEIYRTPAIDSHSYELKIPRHHLRLGTQHIRIRDIRDGSGCHSTSGILSGPSVQVQLFEAPTIYPLETRTDYCVGERISYTLSGQAPFEVWYTFNGVELKAKSPNTNFRRIAESPGEFTITSVSDKASECRAPVSITKTIHPLPAVRISKGKSVRVDIHEGGEVDILFEFFGTPPFEFTYTRSTNARKGQKSQVLETRHDISHEHSKVIKASQEGTYEVVAIKDKYCSFSTQAVVGLEGGKKDKTKKLKVY
# notes: also called FL Ctpom152; full-length Ctpom152; source: insect cells, purified with detergent extract; much of the detergent removed before cryo-EM
# Target: the molecule itself
# Test: cryo-EM micrographs of single particles; purified Ctpom152^FL, much of the detergent removed before rapid freezing; longer strings in up to an estimated 10% of over 2000 images
protein,measurement,value
B1,binding result,binds
